The values that follow come from publication PMC9687583.

This test deals with T1, Human C-C motif ligand 16 (CCL16) (human), O15467.
T1 chain: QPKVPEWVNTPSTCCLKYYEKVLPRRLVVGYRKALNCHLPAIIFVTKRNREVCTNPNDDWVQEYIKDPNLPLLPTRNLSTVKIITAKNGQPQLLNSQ
As to the kind of experiment: SEC; HiLoad 26/60 Superdex 75 pg; 50 mM sodium dihydrogen phosphate, 500 mM sodium chloride, 10% (v/v) glycerol, pH 8.0; apparent mass after calibration with standard proteins in the same buffer. The following applies: remark: other sources report otherwise. (In general: Size exclusion chromatography separates by hydrodynamic size, large species first.)

B1: Human C-C motif ligand 16 (CCL16), O15467 24-120 (natural protein)
chain: T1 chain
modifications: here or on the partner: two intramolecular disulphide bonds (confirmed by CE-MS and electron density); two intramolecular disulphide bonds (confirmed by CE-MS and electron density)
What is called stoichiometry N is the number of molecules, sites or subunits per partner or assembly. For the molecule B1, the stoichiometry N came to 2.
